Columns and labels:
[1] = molecular target: T1, recombinant human EGFR extracellular domain with 6xHis (human, UniProt P00533 25-645); test: SPR, EGFR ECD without competitor
T1 construct: In-house produced; also called 6xHis EGFR ECD; soluble human EGFR ECD; not shown: 6xHis tag
Protocol: (§1) SPR analysis was performed on a Biacore 3000 machine containing four flow cells. A CM5 Biacore chip was conjugated with 10,000 Resonance units (Ru) polyclonal anti-His antibody to flow cells 1-4 according to the manufacturer's instructions. […] Immediately after antigen injection the maximal binding of the Anti-EGFR mAb without competition was established in each flow cell during a reference run. Briefly 5 μl antibody at a concentration of 40 μg/ml was injected over all flow cells with captured EGFR followed by stripping of the antibody/antigen complex with a low pH acid wash (10 sec. contact time with 10 mM Glycine-HCl, pH2). After the determination of Anti-EGFR antibody maximal binding to each flow cell, a competition run was performed during the same Biacore cycle. Flow cells were first saturated with EGFR ECD antigen followed by injection of different reference antibodies or Anti-EGFR antibodies into separate flow cells using the same antigen saturating conditions as outlined above. This step was immediately followed by a second injection of Anti-EGFR antibody over the flow cell saturated with EGFR antigen and competition antibody to minimize the dissociation of either antigen or blocking antibody. Then the antibody/antigen complexes were stripped off with a low pH acid wash (10 sec. contact time with 10 mM Glycine-HCl, pH 2) and the whole cycle beginning with the reference run was repeated with a new Anti-EGFR antibody. The degree of inhibition of tested Anti-EGFR antibodies were determined by comparing the Ru max value of the individual Anti-EGFR antibody before and after competition by introduction of report points recorded two seconds before and after injection of each sample.

[2] = molecular target: T2, full length human EGFR expressed on the cell surface (human, UniProt P00533 25-1210); test: cell ELISA, IgG titrated on unfixed A431-NS cells
T2 construct: whole, on cells; also called EGFR on A431-NS cells; EGFR on HN5 cells
Protocol: (§2) Cell ELISA: The ELISA was performed essentially as described in example 15 with modifications. Cells were left unfixed to allow conformational EGFR flexibility after antibody additions. Briefly, 10,000 A431-NS cells were grown in 96 well ELISA plates containing DMEM with added 0.5% FCS and 1% P/S at 37° C., 5% CO₂ overnight. […] 25 μl DMEM containing 1% BSA was added to wells used for testing of IgG antibodies without added Fab fragments. […] Next, wells were washed four times with PBS and 50 μl of a secondary monoclonal Mouse-anti-Human (Fc specific) HRP conjugate diluted 1:5000 in DMEM containing 1% BSA was added and incubated on ice for 30 min. Finally wells were washed four times with PBS and plates developed by adding 50 μl/well TMB substrate and read at 620 nm every 5-15-30 min. After incubation with substrate the reaction was stopped by addition of 1 M H₂SO₄ and absorbance read at 450 nm. The functional affinity expressed as ED50 values were calculated by subtraction of the average background binding with secondary reagent only, followed by normalization of the binding curves by plotting % maximal binding relative to each antibody tested.
(§3) Investigations of antibody induced binding enhancements were determined by concurrent ELISA binding studies, employing same secondary antibody reagent and incubation times.

[3] = molecular target: T2, full length human EGFR expressed on the …; test: FACS on CHO cells transfected with full length Human EGFR
Protocol: Bound antibody was detected with a PE labelled goat F(ab′)₂ anti-human IgG FC. Gating was performed on uniform cells (SCC/FCS properties) expressing EGFR. Binding is expressed as % maximal antibody binding at 1 nM concentration.
Briefly quantitative FACS analysis was performed on a BD FACS array Bioanalyzer System to determine the number of EGFR molecules expressed on the surface of CHO cells transfected with either Human or Cynomolgus full length EGFR. […] Antibodies were incubated with cells for 14 hours on a shaker, to promote full antigen saturation at all antibody concentrations tested, while FACS buffer was added 0.02% NaN₃ and temperature kept at 4° C. to prevent receptor internalization. After incubation, cells were pelleted at 1200 RPM for 5 min at 4° C. and resuspended in 200 ul FACS buffer. Next cells were stained with a secondary Goat F(ab′)₂ anti-Human IgG FcGamma PE diluted 1:500 and incubated for 30 min at 4° C. on a shaker. Finally cells were washed twice in FACS buffer and analyzed on a BD FACS array Bioanalyzer System with gating on EGFR expressing CHO cells displaying uniform forward/side scatter properties.

[4] = molecular target: T2, full length human EGFR expressed on the …; test: cell ELISA, IgG titrated on unfixed A431-NS cells; given as ED50
Protocol: as §2, §3

[5] = molecular target: T1, recombinant human EGFR extracellular …; test: SPR competition, EGFR ECD first saturated with mix N=6 1261+1347+992+1024+1030+1361
Protocol: as §1

[6] = molecular target: T3, wild type full length EGFR purified from A431 cells (human, UniProt P00533 25-1210); test: EGF blocking ELISA on coated full length EGFR; blocked ligand biotinylated EGF
T3 construct: mature; Bought; coated on ELISA wells; also called full length EGFR receptor antigen; Sigma E3641
Protocol: The next morning wells were washed twice with PBS-T and blocked for one hour with 150 μl PBS-T-1% BSA at room temperature, followed by wash twice in PBS-T. Next 80 μl of serially diluted Anti-EGFR antibodies and control antibodies were added to wells and incubated 30 min at room temperature. […] Subsequently wells were washed five times with PBS-T, followed by incubation with 100 μl/well Streptavidin-HRP secondary reagent diluted 1:1000 in blocking buffer and incubation at room temperature for 30 min. Finally wells were washed five times with PBS-T and plates were developed by adding 100 μl/well TMB substrate and incubated for 60 min. After incubation the reaction was stopped by addition of 1 M H₂SO₄; 100 μl/well and plates were read at OD 450 nm.

[7] = molecular target: T2, full length human EGFR expressed on the …; test: cell ELISA, IgG titrated on unfixed A431-NS cells after saturation with Fab 992; given as ED50
Protocol: as §2, §3

B1: antibody 992 (antibody, human IgG1, kappa, V domains shown)
VH: EVQLQQPGSELVRPGASVKLSCKASGYTFTSYWMHWVKQRPGQGLEWIGNIYPGSRSTNYDEKFKSKATLTVDTSSSTAYMQLSSLTSEDSAVYYCTRNGDYYVSSGDAMDYWGQGTSVTVSS
VL: DIQMTQTTSSLSASLGDRVTISCRTSQDIGNYLNWYQQKPDGTVKLLIYYTSRLHSGVPSRFSGSGSGTDFSLTINNVEQEDVATYFCQHYNTVPPTFGGGTKLEIKR
notes: Chimeric mouse/human IgG1 kappa; the VL entry includes the human kappa constant region
[1]
  Rumax reference cycle: 81 Ru
[2]
  Log ED50: -0.24
[3]
  EC50 (read off the curve): ~0.01 nM
[4]
  EC50: 0.6 nM
[5]
  % inhibition: 116%
  Rumax competition cycle: -14 Ru

B2: antibody 1260 (antibody, human IgG1, kappa, V domains shown)
VH: QVQLKESGPGLVAPSQSLSITCTVSGFSLTTYGVHWVRQPPGKGLEWLGVIWAGGSTNYNSALMSRLSIKKDNSKSQVFLKMNSLQTDDTAMYYCARAYGYNFDYWGQGTTLTVSS
VL: DIQMTQTTSSLSASLGDRVTISCSASQGITNYLNWYQQKPDGTVKLLIYYSSSLHSGVPSRFSGSGSGTDYSLTISNLEPEDIATYYCQQYSEIPYTFGGGTKLELKR
notes: Chimeric IgG1 kappa
[6]
  IC50 (read off the curve): ~50 ng mAb/ml

B3: antibody 1320 (antibody, human IgG1, kappa, V domains shown)
VH: QVQLQQPGAELVKPGASMKLSCKASGYTFTNYWMHWVKQRPGQGLEWIGEINPSNGRTNYNEKFKSKATLTVDKSSSTAYMQLSSLTSEDSGVYYCAKGGNYYDYDWDYWGQGTTLTVSS
VL: DIQMTQTTSSLSASLGDRVTISCSASQDISNYLNWYQQKPDGTVKLLIYHTSTLHSGVPSRFSGSGSGTDYSLTISNLEPEDIATYYCQQYSKLPWTFGGGTKLEIKR
notes: Chimeric IgG1 kappa
[3]
  EC50 (read off the curve): ~0.01 nM

B4: antibody 1347 (antibody, human IgG1, kappa, V domains shown)
VH: QVQLKESGPGLVAPSQSLSITCTVSGFSLTGHGVNWVRQPPGKGLEWLGMIWGDGSTDYNSTLKSRLSISKDNSKSQVFLKMNSLQTDDTARYYCARGYGYLYYFDYWGQGTTLTVSS
VL: ENVLTQSPAIMSASPGEKVTMTCRASSSVSSSYLHWYQQKSGASPKLWIYSTSNLASGVPARFSGSGSGTSYSLTVNSVETEDAATYYCHQYSGFPFTFGSGTKLELKR
notes: Chimeric IgG1 kappa
[1]
  Rumax reference cycle: 75 Ru
[5]
  % inhibition: 80%
  Rumax competition cycle: 19 Ru

B5: antibody 1208 (antibody, human IgG1, kappa, V domains shown)
VH: EVQLVESGGGLVKPGGSLKLSCAASGFAFSSYDMSWVRQTPEKRLEWVAYIGSGDDNTHYPDSVKGRFTISRHNAKNTLYLQMSSLKSEDTAMYYCARQKYGNYGDTMDYWGQGTSVTVSS
VL: DVVMTQTPLSLPVSLGDQASISCRSSQSLVHSNGNTYLHWYLQKPGQSPKLLIYKVSNRFSGVPDRFSGSGSGTDFTLKISRVEAEDLGVYFCSQSTHVPTFGGGTKLEIKR
notes: Chimeric IgG1 kappa; also called clone 1208
[6]
  IC50 (read off the curve): ~20 ng mAb/ml

B6: antibody 1030 (antibody, human IgG1, kappa, V domains shown)
VH: EVQLVESGGGLVKPGGSLKLSCAASGFTFSSYALSWVRQTPERRLEWVASISGVGSTYFPDSVKGRFTMSRDNARNILYLQMSSLRSEDTAMYYCARGSDGYFYAMDYWGQGTSVTVSS
VL: DIVLTQSPASLAVSLGQRATISCRASKSVSTSGYSFMHWYQLKPGQPPKLLIYLASNLESGVPARFSGSGSGTDFTLNIHPVEEEDAATYYCQHSREFPLTFGGGTKLEIKR
notes: Chimeric IgG1 kappa
[2]
  Log ED50: 0.33
[4]
  EC50: 2.2 nM
[5]
  % inhibition: 87%
  Rumax competition cycle: 12 Ru
[7]
  EC50: 1.6 nM

B7: antibody 1261 (antibody, human IgG1, kappa, V domains shown)
VH: EVQLVESGGGLVKPGGSLKLSCAVSGFTFSSYVMSWVRQTPEKRLEWVATITSGGRNIYYLDSVKGRFTISRDNAKNTLYLQMSSLRSEDTAMYYCARHEDYRYDGYYAMDYWGQGTSVTVSS
VL: QIVLTQSPAIMSASPGEKVTITCSASSSVSYMHWFQQKPGTSPKLWIYSTSNLASGVPARFSGSGSGTSYSLTISRMEAEDAATYYCQQRSSYPYTFGGGTKLELKR
notes: Chimeric IgG1 kappa
[1]
  Rumax reference cycle: 157 Ru
[5]
  % inhibition: 95%
  Rumax competition cycle: 7 Ru

B8: antibody 1024 (antibody, human IgG1, kappa, V domains shown)
VH: QVQLQQPGAELVEPGGSVKLSCKASGYTFTSHWMHWVKQRPGQGLEWIGEINPSSGRNNYNEKFKSKATLTVDKSSSTAYMQFSSLTSEDSAVYYCVRYYGYDEAMDYWGQGTSVTVSS
VL: DIVMTQAAFSNPVTLGTSASISCRSSKSLLHSNGITYLYWYLQKPGQSPQLLIYQMSNLASGVPDRFSSSGSGTDFTLRISRVEAEDVGVYYCAQNLELPYTFGGGTKLEIKR
notes: Chimeric IgG1 kappa
[1]
  Rumax reference cycle: 100 Ru
[2]
  Log ED50: -0.01
[3]
  EC50 (read off the curve): ~0.01 nM
[4]
  EC50: 1 nM
[5]
  % inhibition: 113%
  Rumax competition cycle: -14 Ru
[7]
  EC50: 0.9 nM

Reference: patent publication US20110135636A1 (SYMPHOGEN A S, published 2011)
